Measured values reported in patent US20160199438A1 (Eli Lilly, published 2016).
Changes are numbered by the printed parent chain.

T1: human glucose-dependent insulinotropic polypeptide receptor (human, UniProt P48546 22-466)
T1 sequence (looked up): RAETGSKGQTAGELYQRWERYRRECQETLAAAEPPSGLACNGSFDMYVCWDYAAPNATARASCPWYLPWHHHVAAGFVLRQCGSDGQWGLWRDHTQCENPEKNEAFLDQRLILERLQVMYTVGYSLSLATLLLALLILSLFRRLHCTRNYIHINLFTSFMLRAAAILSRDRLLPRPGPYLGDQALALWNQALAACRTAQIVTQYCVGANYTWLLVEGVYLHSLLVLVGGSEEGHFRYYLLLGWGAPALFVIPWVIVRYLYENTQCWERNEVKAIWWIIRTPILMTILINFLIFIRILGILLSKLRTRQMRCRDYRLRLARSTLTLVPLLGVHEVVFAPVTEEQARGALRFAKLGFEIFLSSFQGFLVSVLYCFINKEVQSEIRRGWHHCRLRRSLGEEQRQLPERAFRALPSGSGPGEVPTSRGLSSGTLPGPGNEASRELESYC

T2: GIP receptor of GLUTag cells (murine (the cell line is stated to be …, UniProt Q0P543 19-460))
T2 sequence (looked up): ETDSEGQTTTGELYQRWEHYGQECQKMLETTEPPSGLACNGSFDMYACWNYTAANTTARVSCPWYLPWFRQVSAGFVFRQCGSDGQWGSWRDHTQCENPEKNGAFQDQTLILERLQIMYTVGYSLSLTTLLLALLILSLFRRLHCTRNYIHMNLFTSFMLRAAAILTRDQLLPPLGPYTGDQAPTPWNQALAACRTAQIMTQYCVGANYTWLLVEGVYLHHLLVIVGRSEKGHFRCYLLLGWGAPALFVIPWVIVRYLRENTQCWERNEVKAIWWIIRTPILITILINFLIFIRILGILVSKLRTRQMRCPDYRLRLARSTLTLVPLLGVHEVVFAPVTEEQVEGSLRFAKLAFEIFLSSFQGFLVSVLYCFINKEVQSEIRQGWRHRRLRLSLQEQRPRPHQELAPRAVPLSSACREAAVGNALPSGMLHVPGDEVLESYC

T3: human GLP-2 receptor (human, UniProt O95838 1-553)
T3 sequence (looked up): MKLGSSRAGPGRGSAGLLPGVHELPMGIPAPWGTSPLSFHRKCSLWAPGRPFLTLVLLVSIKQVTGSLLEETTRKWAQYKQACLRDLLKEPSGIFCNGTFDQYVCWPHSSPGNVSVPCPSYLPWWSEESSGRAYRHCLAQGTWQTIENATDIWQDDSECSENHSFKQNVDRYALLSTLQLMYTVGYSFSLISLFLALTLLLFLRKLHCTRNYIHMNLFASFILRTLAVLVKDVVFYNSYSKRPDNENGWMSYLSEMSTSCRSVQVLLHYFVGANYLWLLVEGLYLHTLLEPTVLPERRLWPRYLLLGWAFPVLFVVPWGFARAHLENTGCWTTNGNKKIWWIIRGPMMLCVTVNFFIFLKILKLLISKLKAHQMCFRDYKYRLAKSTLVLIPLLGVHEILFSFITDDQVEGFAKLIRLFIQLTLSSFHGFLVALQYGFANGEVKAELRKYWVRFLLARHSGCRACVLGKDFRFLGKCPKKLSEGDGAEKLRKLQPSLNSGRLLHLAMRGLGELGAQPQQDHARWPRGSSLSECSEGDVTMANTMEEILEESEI

B1: Example 3 (peptide)
peptide: YXEGTFTSDYSIXLDKIAQKAFVQWLIAGGPSSGAPPPS
modifications: Aib at positions 2 and 13; K at position 20 conjugated at the epsilon-amino group with ([2-(2-Amino-ethoxy)-ethoxy]-acetyl)2-(γGlu)1-CO-(CH2)16-CO2H; C-terminal primary amide
notes: Synthetic acylated peptide, trifluoroacetate salt
B2: Example 7 (peptide)
peptide: B1 peptide with F22X
modifications: Aib at positions 2 and 13; K at position 20 conjugated at the epsilon-amino group with ([2-(2-Amino-ethoxy)-ethoxy]-acetyl)2-(γGlu)2-CO-(CH2)16-CO2H; 1-Nal at position 22; C-terminal primary amide
notes: as for B1
B3: Example 8 (peptide)
peptide: B1 peptide with F22X
modifications: Aib at positions 2 and 13; K at position 20 conjugated at the epsilon-amino group with ([2-(2-Amino-ethoxy)-ethoxy]-acetyl)2-(γGlu)1-CO-(CH2)18-CO2H; 1-Nal at position 22; C-terminal primary amide
notes: as for B1
B4: Example 1 (peptide)
peptide: B1 peptide
modifications: Aib at positions 2 and 13; K at position 20 conjugated at the epsilon-amino group with ([2-(2-Amino-ethoxy)-ethoxy]-acetyl)2-(γGlu)1-CO-(CH2)18-CO2H; C-terminal primary amide
B5: Example 4 (peptide)
peptide: B1 peptide
modifications: Aib at positions 2 and 13; K at position 20 conjugated at the epsilon-amino group with ([2-(2-Amino-ethoxy)-ethoxy]-acetyl)2-(γGlu)2-CO-(CH2)16-CO2H; C-terminal primary amide
notes: as for B1
B6: Example 2 (peptide)
peptide: B1 peptide with F22X
modifications: Aib at positions 2 and 13; K at position 20 conjugated at the epsilon-amino group with ([2-(2-Amino-ethoxy)-ethoxy]-acetyl)2-(γGlu)2-CO-(CH2)18-CO2H; 1-Nal at position 22; C-terminal primary amide
notes: as for B1
B7: Example 5 (peptide)
peptide: B1 peptide
modifications: Aib at positions 2 and 13; K at position 20 conjugated at the epsilon-amino group with ([2-(2-Amino-ethoxy)-ethoxy]-acetyl)2-(γGlu)2-CO-(CH2)18-CO2H; C-terminal primary amide
notes: as for B1
B8: Example 6 (peptide)
peptide: B1 peptide with F22X
modifications: Aib at positions 2 and 13; K at position 20 conjugated at the epsilon-amino group with ([2-(2-Amino-ethoxy)-ethoxy]-acetyl)2-(γGlu)1-CO-(CH2)16-CO2H; 1-Nal at position 22; C-terminal primary amide
notes: as for B1

Target: human glucose-dependent insulinotropic polypeptide receptor (human) (UniProt P48546)
Assay: cell-based or functional assay

In the case of “human GIP(1-42)NH2 (from UniProt P09681 52-93) (ligand)”, the Emax, % (intracellular cAMP) is reported as 100%.

Target: T1, human glucose-dependent insulinotropic …
Assay: cell-based or functional assay

Compared with B1, B2 is 2.6-fold higher in “EC50 (intracellular cAMP)” value: 3.15 nM for the first, 8.07 nM for the second.

Going from B3 to B5, the “EC50 (intracellular cAMP)” value falls from 21.1 nM to 3.76 nM (5.6-fold).

First: B6
Second: B7
The “EC50 (intracellular cAMP)” value of the first is 2-fold higher: 17.5 nM for the first, 8.76 nM for the second.

For B8, the “EC50 (intracellular cAMP)” value was 4.4 nM.

B1 and B2 are the same in “Emax, % (intracellular cAMP)” value: 106% for the first, 106% for the second.

Compared with B3, B4 is lower in “Emax, % (intracellular cAMP)” value: 108% for the first, 97.9% for the second.

Compared with B6, B7 is higher in “Emax, % (intracellular cAMP)” value: 94.7% for the first, 105% for the second.

In the case of B8, the “Emax, % (intracellular cAMP)” value is reported as 106%.

Target: T4, human glucagon-like peptide 1 receptor (human, UniProt P43220 24-463)
Assay: cell-based or functional assay

B1 and B2 are within 1.5-fold of each other in “EC50 (intracellular cAMP)” value: 33.9 nM for the first, 35.5 nM for the second.

B3 and B6 are within 1.5-fold of each other in “EC50 (intracellular cAMP)” value: 57.9 nM for the first, 75.7 nM for the second.

In the case of B8, the “EC50 (intracellular cAMP)” value is reported as 28.4 nM.

Going from B1 to B2, the “Emax, % (intracellular cAMP)” value rises from 96.2% to 97.2%.

Compared with B3, B4 is lower in “Emax, % (intracellular cAMP)” value: 88.4% for the first, 85.2% for the second.

First: B5
Second: B6
The “Emax, % (intracellular cAMP)” value of the first is higher: 100% for the first, 98.2% for the second.

Compared with B7, B8 is lower in “Emax, % (intracellular cAMP)” value: 105% for the first, 104% for the second.

Target: human glucagon receptor (human, UniProt P47871 26-477)
Sequence (P47871 26-477): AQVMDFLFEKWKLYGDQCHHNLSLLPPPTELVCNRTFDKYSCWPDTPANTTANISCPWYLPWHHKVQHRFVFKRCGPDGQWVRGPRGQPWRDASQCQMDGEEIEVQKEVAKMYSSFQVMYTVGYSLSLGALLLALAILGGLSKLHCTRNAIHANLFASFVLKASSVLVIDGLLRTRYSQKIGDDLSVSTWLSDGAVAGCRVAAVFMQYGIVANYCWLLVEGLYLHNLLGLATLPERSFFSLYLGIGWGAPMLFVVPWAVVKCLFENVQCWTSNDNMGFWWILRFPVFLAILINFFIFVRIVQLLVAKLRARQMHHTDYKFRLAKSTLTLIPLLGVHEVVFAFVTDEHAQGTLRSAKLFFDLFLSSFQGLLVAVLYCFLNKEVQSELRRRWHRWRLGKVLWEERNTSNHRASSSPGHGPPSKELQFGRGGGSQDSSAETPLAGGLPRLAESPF
Assay: cell-based or functional assay

B2 and B3 cannot be ordered by “EC50 (intracellular cAMP)” value: greater than 1000 nM for the first, greater than 1000 nM for the second.

B6 and B8 cannot be ordered by “EC50 (intracellular cAMP)” value: greater than 1000 nM for the first, greater than 1000 nM for the second.

Target: T2, GIP receptor of GLUTag cells
Assay: cell-based or functional assay

First: B1
Second: B2
The “Average EC50, cAMP in GLUTag cells” value of the first is 1.7-fold lower: 1610 nM for the first, 2750 nM for the second.

B4 and B5 are within 1.5-fold of each other in “Average EC50, cAMP in GLUTag cells” value: 1490 nM for the first, 2190 nM for the second.

For B6, the “Average EC50, cAMP in GLUTag cells” value was 2920 nM.

Target: T3, human GLP-2 receptor
Assay: cell-based or functional assay

First: C18-acylated human GLP-2 control (from UniProt P01275 146-178) (peptide)
Second: B1
The Rel EC50 (intracellular cAMP) of the first is 110-fold lower: 1.86 nM for the first, 199 nM for the second.

Compared with B2, B5 is 4.4-fold lower in Rel EC50 (intracellular cAMP): 1800 nM for the first, 405 nM for the second.

In the case of B6, the “Rel EC50 (intracellular cAMP)” value is reported as 1610 nM.

Target: T1, human glucose-dependent insulinotropic …
Assay: competition of [125I]GIP, SPA, hGIP-R CHO-S membranes; Ki by Cheng-Prusoff
Description: The compounds are serially diluted into binding buffer. Next, 10 μL diluted compound or 100% DMSO is transferred into Corning® 3632 clear bottom assay plates containing 40 μL assay binding buffer or cold GIP (NSB at 0.1 μM final). Then, 90 μL membranes (3 μg/well), 50 μL [|¹²⁵|] GIP (Perkin Elmer Life and Analytical Sciences at 0.15 nM final in reaction), and 50 μL of WGA beads (150 μg/well) is added, sealed, and mixed on a plate shaker for 1 minute. Plates are read with a MicroBeta® scintillation counter after 12 hours of settling time at room temperature.
(§1) The IC₅₀ concentration is converted to Ki using the Cheng-Prusoff equation.

Compared with B1, B2 is 1.7-fold higher in Ki: 26.7 nM for the first, 46.1 nM for the second.

Compared with B3, B5 is 1.7-fold lower in Ki: 67.5 nM for the first, 40.7 nM for the second.

Compared with B6, B7 is 3.6-fold lower in Ki: 63.9 nM for the first, 17.8 nM for the second. The second binds more tightly here.

Molecule B8 has a Ki of 44.2 nM.

Target: T4, human glucagon-like peptide 1 receptor
Assay: ratio of Ki on hGLP-1R to Ki on hGIP-R (reference), radioligand competition

Going from B2 to B3, the “Absolute ratio of hGLP-1R/hGIP-R” value falls from 7.6 to 4.5.

Going from B6 to B8, the “Absolute ratio of hGLP-1R/hGIP-R” value rises from 5.4 to 8.3.

Target: T4, human glucagon-like peptide 1 receptor
Assay: competition of I-125 GLP-1, SPA, hGLP-1R 293HEK membranes; Ki by Cheng-Prusoff
Description: The hGLP-1R cDNA is subcloned into the expression plasmid phD (Trans-activated expression of fully gamma-carboxylated recombinant human protein C, an antithrombotic factor. Grinnell, B. W., Berg, D. T., Walls, J. and Yan, S. B. Bio/Technology 5: 1189-1192, 1987). This plasmid DNA is transfected into 293HEK cells and selected with 200 μg/mL Hygromycin.
The binding buffer contains 25 mM HEPES, pH 7.4, 2.5 mM CaCl₂, 1 mM MgCl₂, 0.1% fatty acid free BSA, 0.003% Tween20, and Roche Complete™ Inhibitors without EDTA. […] The peptide analog is dissolved in 100% DMSO and serially diluted in 100% DMSO. Next, 10 μL diluted compounds of the present invention or 100% DMSO are transferred into Corning® 3632 clear bottom assay plates containing 40 μL assay binding buffer or cold glucagon (NSB at 1 μM final). […] Plates are read with a PerkinElmer Life and Analytical Sciences Trilux MicroBeta® scintillation counter after 12 hours of settling time at room temperature.
as §1

B1 and B2 are within 1.5-fold of each other in Ki: 427 nM for the first, 352 nM for the second.

First: B3
Second: B5
The Ki of the first is 2.3-fold lower: 307 nM for the first, 714 nM for the second. The first binds more tightly here.

First: B6
Second: B7
The Ki of the first is 2.2-fold higher: 344 nM for the first, 158 nM for the second.

In the case of B8, the Ki is reported as 365 nM.

Target: T4, human glucagon-like peptide 1 receptor
Assay: Ki ratio hGLP-1R/hGIP-R normalized by 4.53 (native GLP-1/GIP), radioligand competition

Going from B2 to B3, the “Molar ratio of hGLP-1R/hGIP-R” value falls from 1.68 to 0.99.

Compared with B6, B8 is higher in “Molar ratio of hGLP-1R/hGIP-R” value: 1.19 for the first, 1.83 for the second.
